Where two headings read alike, the source gives them in different places. Each block holds one binder with its values, some of them ahead of it.
Assays:
[1] = biological target: T1, human IL6R (R and D systems cat #227-SR/CF) (human, UniProt P08887 20-358); experiment: ELISA; apparent, printed beside curve
T1 chain: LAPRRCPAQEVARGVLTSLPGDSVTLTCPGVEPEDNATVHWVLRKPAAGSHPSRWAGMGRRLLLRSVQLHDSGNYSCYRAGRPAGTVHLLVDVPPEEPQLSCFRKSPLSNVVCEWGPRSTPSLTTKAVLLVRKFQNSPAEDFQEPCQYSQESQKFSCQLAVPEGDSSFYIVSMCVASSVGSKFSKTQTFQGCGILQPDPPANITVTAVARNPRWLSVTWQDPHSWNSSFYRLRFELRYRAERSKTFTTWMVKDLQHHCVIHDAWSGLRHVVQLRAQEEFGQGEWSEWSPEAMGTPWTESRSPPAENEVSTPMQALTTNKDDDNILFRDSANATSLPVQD

[2] = biological target: T1, human IL6R (R and D systems cat …); experiment: ELISA; apparent, printed beside curve

Kd [1]: 2.2 nM
B1: Av1 antibody (antibody, V domains shown)
VH: QVQLQESGPGLVRPSQTLSLTCTVSGYSITSDHAWSWVRQPPGRGLEWIGYISYSGITTYNPSLKSRVTISRDNSKNTLYLQMNSLRAEDTAVYYCARSLARTTAMDYWGQGSLVTVSS
VL: DIQMTQSPSSLSASVGDRVTITCRASQDISSYLNWYQQKPGKAPKLLIYYTSRLHSGVPSRFSGSGSGTDFTFTISSLQPEDIATYYCQQGNTLPYTFGQGTKVEIKR

Kd [2]: 19.2 nM
B2: AV1-based activatable anti-IL6R antibody with Generation 1 mask Peptide 1 and substrate MMP/BV728 (antibody, V domains shown)
VH: B1 VH
VL: YRSCNWNYVSIFLDCDIQMTQSPSSLSASVGDRVTITCRASQDISSYLNWYQQKPGKAPKLLIYYTSRLHSGVPSRFSGSGSGTDFTFTISSLQPEDIATYYCQQGNTLPYTFGQGTKVEIKR
